How the values were obtained:
[1] = biological target: T1, human ROR1 Frizzled domain (hROR1-Fz) (human, UniProt Q01973 165-305); experiment: SPR Biacore, IgG on anti-Fc, ROR1-Fz analyte
T1 construct: Acro Biosystems, made in HEK293
Method: Anti-Fc polyclonal antibodies were immobilized onto a CMS chip (GE Life Sciences) using amine coupling chemistry (from Amine Coupling Kit, GE Life Sciences). The immobilization steps were carried out at a flow rate of 25 μL/min in 1×HBS-EP+buffer (GE Life Sciences; 10× Stock diluted before use). The sensor surfaces were activated for 7 min with a mixture of NHS (0.05 M) and EDC (0.2 M). The Anti-Fc antibodies were injected over all 4 flow cells at a concentration of 25 ug/ml in 10 mM sodium acetate, pH 4.5, for 7 min. Ethanolamine (1 M, pH 8.5) was injected for 7 min to block any remaining activated groups.
Off-rate and kinetic binding experiments were performed at 25° C. using 1×HBS-EP+buffer. Test and control antibodies were injected over the anti-Fc surface at concentrations of 5-10 μg/mL for 12 seconds at a flow rate of 10 μL/min on flow cells 2, 3 and 4, followed by a buffer wash for 30 seconds at the same flow rate. […] After capturing ligand (antibody) on the anti-Fc surface, the analyte (hROR1, Fz or Kr domains, Acro Biosystems, Delaware) was bound for 180 seconds, followed by a 600 second dissociation phase at a flow rate of 50 μL/min. Between each ligand capture and analyte binding cycle, regeneration was carried out using 2 injections of 10 mM Glycine pH 2.0 for 30 seconds at 30 μL/min, followed by a 30 second buffer wash step.

[2] = biological target: T2, human ROR1 (hROR1) (human, UniProt Q01973 30-937); experiment: flow cytometry, HCT116-hROR1 cells
T2 construct: On HCT116-hROR1 transfectants, Mino cells or Ntera-2 cells, as the assay of each row says; also called receptor tyrosine kinase like orphan receptor 1
Method: A mix of ROR1 positive and negative cells was prepared as follows. Ror1 negative cells were washed 2× in PBS then incubated in PBS containing 1 nM CellTrace™ Oregon Green488® (Life Technologies) at 37° C. for 30 minutes. Cells were then washed 2× with RPMI w/10% fetal calf serum (or FCS), washed 2× with FACS buffer (PBS+0.5% BSA), suspended thoroughly in ice-cold FACS buffer at a final concentration of 4×10^6 cells/ml and kept on ice. ROR1 positive cells were washed 2× in PBS and suspended with ice-cold FACS buffer at 4×10^6 cells/ml. ROR1 positive and negative cells were then mixed to obtain a 1-1 cell suspension and seeded at 50 μl per well on 96 well polypropylene plates. 50 μl of 6-12 point dilutions of anti-ROR1 variants starting from concentrations of ˜100-200 nM antibody was dispensed using BioMekFX (Beckman Coulter) into each well. Cells were then incubated on ice for 1 hr, washed with FACS buffer and incubated for 1 hr on ice with 50 μl FACS buffer containing 2.5 μg/ml Alexa647-conjugated Goat Anti-Human IgG dispensed using BioMekFX (Beckman Coulter). Cells were then washed 2× with FACS buffer and fixed for 10 minutes in 200 μl PBS with 2% PFA prior to fluorescence detection. Samples were acquired using a Beckton Dickinson LSRII FACS. Mean Fluorescence Intensity of ROR1 antibody binding was analyzed using FlowJo® software (Tree Star, Inc.).

Binder | Kd [1] [nM] | koff [1] [s⁻¹] | kon [1] [M⁻¹ s⁻¹] | Bmax (MFI) [2] [MFI] | Kd [2] [nM]
SRP1943-C02 (antibody, IgG1, V domains shown, Parent of SRP2193; His/FLAG-tagged IgG1, cell-free; also called Antibody 70) VH: EVQLVESGGGLAQPGGSLRLSCAAPGFNINDYYIHWVRQAPGKGLEWVGAIDPNSGSTDYADSVKGRFAISADTSKNTAYLQMNSLRAEDTAVYYCARSRWFRVLWSYVFDYWGQGTLVTVSS VL: not shown | 97.6 | 0.05 | 539000 |  | 
SRP2193-B05 (antibody, IgG1, V domains shown, His/FLAG-tagged IgG1, cell-free; also called Antibody 109) VH: EVQLVESGGGLVQPGGSLRLSCAASGFNINQYYIHWVRQAPGEGLEWVGAIDPIGGSTHLADSVKGRFTISADTSKNTAYLQMNSLRAEDAAVYYCARSRWYRVLWSYVFDYWGQGTLVTVSS VL: not shown |  |  |  | 15400 | 0.47
SRP2193-B07 (antibody, IgG1, V domains shown, His/FLAG-tagged IgG1, cell-free) VH: EVQLVESGGGLVQPGGSLRLSCAASGFNINNSYIHWVRQAPGKGLEWVGAIDPNSGSTLSADSVKGRFTISADTSKSTAYLQMNSLRAEDTAVYYCARSRWFRVLWSYIFDYWGQGTLVTVSS VL: not shown |  |  |  | 15500 | 0.6
SRP2193-B08 (antibody, IgG1, V domains shown, His/FLAG-tagged IgG1, cell-free; also called Antibody 90) VH: EVQLVESGGGLVQPGGSLRLSCAASGFNIKDYYIHWVRQAPGKGLEWVSAIDPSPGATLDADSVKGRFTISADTSKNTAYLQMNSLRAEDTAVYYCARSRWFRVLWSYALDYWGQGTLVTVSS VL: not shown |  |  |  | 14300 | 1.15
SRP2193-B10 (antibody, IgG1, V domains shown, His/FLAG-tagged IgG1, cell-free; also called Antibody 88) VH: EVQLVESGGGLVQPGGSLRLSCAASGFNIADYYVHWVRQAPGKGLEWVGAIDPNSGYTVKADSVKGRFTISADTSKNTAYLQMNSLRAEDTAVYYCARSRWLRVLWSFVFDYWGQGTLVTVSS VL: not shown |  |  |  | 14700 | 1.08
SRP2193-C01 (antibody, IgG1, V domains shown, His/FLAG-tagged IgG1, cell-free) VH: EVQLVESGGGLVQPGGSLRLSCAASGLNINDHYIHWVRQAPGKGLEWVGTIDPKSGSTHVADSVKGRFTISADTSKNTAYLQMNSLRAEDTAVYYCARSRWFRVLWSYVFDYWGQGTLVTVSS VL: not shown |  |  |  | 15900 | 0.39
SRP2193-C03 (antibody, IgG1, V domains shown, His/FLAG-tagged IgG1, cell-free) VH: EVQLVESGGGLVQPGGSLRLSCAASGFNINYSYIHWVRQAPGKGLEWVGAIEPKSGSTASADSVKGRFTISADTSKNTAYLQMNSLRAEDAAVYYCARSRWYRVLWSYVLDYWGQGTLVTVSS VL: not shown |  |  |  | 15700 | 0.14
SRP2193-C05 (antibody, IgG1, V domains shown, His/FLAG-tagged IgG1, cell-free; also called Antibody 91) VH: EVQLVESGGGLVQPGGSLRLSCAASGFNIKHSYIHWVRQAPGKGLEWVGAIDPHNGSTASADSVKGRFTISADTSKNTAYLQMNSLRAEDTAVHYCARSRWFRVLWSYVIDYWGQGTLVTVSS VL: not shown |  |  |  | 15100 | 1.75
SRP2193-C06 (antibody, IgG1, V domains shown, His/FLAG-tagged IgG1, cell-free) VH: EVQLVESGGGLVQPGGSLRLSCAASGFNIIVHYIHWVRQAPGKGLEWVSAIDPISGSTQWADSVKGRFTISADTSKNTAYLQMNSLRAEDTAVYYCARSRWRRALWIYVFDYWGQGTLVTVSS VL: not shown |  |  |  | 14500 | 4.16
SRP2193-C08 (antibody, IgG1, V domains shown, His/FLAG-tagged IgG1, cell-free; also called Antibody 99) VH: EVQLVESGSGLVQPGGSLRLSCAASGFNINHYYIHWVRQAPGKGLEWVGAIDPYPGSTYNADSVKGRFTISADTSKNTAYLQMNSLRAEDTAVYYCARSRWFRVLWSYVFDYWGQGTLVTVSS VL: not shown |  |  |  | 15000 | 0.72
SRP2193-C10 (antibody, IgG1, V domains shown, His/FLAG-tagged IgG1, cell-free; also called Antibody 123) VH: EVQLVESGGGLVQPGGSLRLSCAASGFNINNAYIHWVRQAPGKGLEWVGAIDPRSGSTISADSMKGRFTISADTSKNTAYLQMNSLRAEDTAVYYCARSRWFRVLWSFGFDYWGQGTLVTVSS VL: not shown |  |  |  | 16600 | 0.32
SRP2193-D03 (antibody, IgG1, V domains shown, His/FLAG-tagged IgG1, cell-free; also called Antibody 93) VH: EVQLVESGGGLVQPGGSLRLSCAASGFNINDHYIHWVRQAPGKGLEWVSAIDPNTGSTVNADSVKGRFTISADTSKNTAYLQMNSLRAEDTAVYYCARSRWSRVLWIYVFDYWGQGTLVTVSS VL: not shown |  |  |  | 15700 | 0.93
SRP2193-D07 (antibody, IgG1, V domains shown, His/FLAG-tagged IgG1, cell-free) VH: EVQLVESGGGLVQPGGSLRLSCAASGFNIIDYNIHWVRQAPGKGLEWVTAIGPADGSTVNADSLKGRFTISADTSKNTAYLQMNSLRAEDTAVYYCARSRWLRVLWSYVFDYWGQGTLVTVSS VL: not shown |  |  |  | 15400 | 3.11
SRP2193-D11 (antibody, IgG1, V domains shown, His/FLAG-tagged IgG1, cell-free; also called Antibody 76) VH: EVQLVESGGGSVQPGGSLRLSCAASGFNINAYYIHWVRQAPGKGLEWVGAIDPNTGSTVDADSVKGRFTISADTSKNTAYLQMNSLRAEDTAVYYCARSRWFRVLWSYVFDYWGQGTLVTVSS VL: not shown |  |  |  | 15200 | 1.25
SRP2193-E02 (antibody, IgG1, V domains shown, His/FLAG-tagged IgG1, cell-free) VH: EVQLVESGGGLVQPGGSLRLSCAASGFNIKDYYIHWVRQAPGKGLEWVGSIDPTSGSTVIADSVKGRFTISADTSKNTAYLQMNSLRAEDTAVYYCARSRWWRVLWSYVFDYWGQGTLVTVSS VL: not shown |  |  |  | 16400 | 8.13
SRP2193-E04 (antibody, IgG1, V domains shown, His/FLAG-tagged IgG1, cell-free; also called Antibody 74) VH: EVQLVESGGGLVQPGGSLRLSCAASGFNINDRYIHWVRQAPGKGLEWVGVIDPSLGSTIDADSVKGRFTISADTSRNTAYLQMNSLRAEDTAVYYCARSRWFRVLWSYVFDYWGQGTLVTVSS VL: not shown |  |  |  | 14400 | 15.6
SRP2193-E09 (antibody, IgG1, V domains shown, His/FLAG-tagged IgG1, cell-free) VH: EVQLVESGGGLVQPGGSLRLPCAASGFNIGAYYIHWVRQAPGKGLEWVGAIDPGSGYTVPADSVKGRFTISADTSKNTAYLQMNSLRAEDTAVYYCARSRWYRVLWSYVFDYWGQGTLVTVSS VL: not shown |  |  |  | 16300 | 0.46
SRP2193-E10 (antibody, IgG1, V domains shown, His/FLAG-tagged IgG1, cell-free; also called Antibody 72) VH: EVQLVESGGGLVQPGGSLRLSCAASGFNIYDYYIHWVRQAPGKGLEWVGAIDPVNGSTNNADSVKGRFTISADTSKNTAYLQMNSLRAEDTAVYYCARSRWYRVLWSYVFDYWGQGTLVTVSS VL: not shown |  |  |  | 15900 | 7.14
SRP2194-A03 (antibody, IgG1, V domains shown, His/FLAG-tagged IgG1, cell-free) VH: EVQLVESGGGLVQPGGPLRLSCAASGFNITGYYIHWVRQAPGKGLEWVGYITPNSGTTYSADSVKGRFTISADTSKNTAYLQMNSLRAEDTAVYYCARDSRRYVRPLDYWGQGTLVTVSS VL: not shown |  |  |  | 7610 | 5.35
SRP2194-A08 (antibody, IgG1, V domains shown, His/FLAG-tagged IgG1, cell-free) VH: EVQLVESGGGLVQPGGSLRLSCAASGFNITGYHIHWVRQAPGKGLEWVGYIAPSSGYTYDADSVKGRFTISADTSKNTAYLQMNSLRAEDTAVYYCARDSRRYVRPFDYWGQGTLVTVSS VL: not shown |  |  |  | 8250 | 0.3
SRP2194-A09 (antibody, IgG1, V domains shown, His/FLAG-tagged IgG1, cell-free; also called Antibody 130) VH: EVQLVESGGGLVQPGGSLRLSCAASGFNITGYYIHWVRQAPGKGLEWVGYITPLSGATYRADSVKGRFTISADTSKNTAYLQMNSLRAEDTAVYYCARDSRRYVRPFDYWGQGTLVTVSS VL: not shown |  |  |  | 8240 | 0.13
SRP2194-A10 (antibody, IgG1, V domains shown, His/FLAG-tagged IgG1, cell-free) VH: EVQLVESGGGLVQPGGSLRLSCAASGFNITQYYIHWVRQAPAKGLEWVGYISPNSGSTHIADSVKGRFTISADTSKNTAYLQMNSLRAEDTAVYYCARDSRRYVRPFDYWGQSTLVTVSS VL: not shown |  |  |  | 8250 | 0.16
SRP2194-A11 (antibody, IgG1, V domains shown, His/FLAG-tagged IgG1, cell-free; also called Antibody 135) VH: EVQLVESGGGLVQPGGSLRLSCAASGFNITQYYIHWVRQAPGKGLEWVGYISPNSGYTTDADSVKGRFTISADTSKNTAYLQMNSLRAEDTAVYYCARDSRRYVRPFDYWGQGTLVTVSS VL: not shown |  |  |  | 8660 | 0.1
SRP2196-A01 (antibody, V domains shown, His/FLAG-tagged IgG1) VH: EVQLVESGGGLVQPGGSLRLSCAASGFNITGYYIHWVRQAPGKGLEWVGQISPNSGYTYYADSVKGRFTISADTSKNTAYLQMNSLRAEDTAVYYCARDSRRYVRGWDYWGQGTLVTVSS VL: QAVVTQESALTTSPGETVTLTCRSSTGAVTTSNYANWVQEKPDHLFTGLIGGTNKRAPGVPARFSGSLIGDKAALTITGAQTEDEAIYFCALWYSNLWVFGGGTKLTVL |  |  |  | 15800 | 0.3
